These results are taken from publication PMC13200455.

Series [1] deals with T1, USE1 (purified, His-USE1) (Homo sapiens, UniProt Q9H832 1-354). Kind of series: equilibrium binding curve, one-site fit.
For series [2], the target named is T1, USE1 (purified, His-USE1). Kind of series: ELONA titration.
For series [3], the target named is T1, USE1 (purified, His-USE1). In words: fluorescence/quencher displacement.
The target in series [4] is T1, USE1 (purified, His-USE1). In words: Ni-NTA and streptavidin pull-down.

T1 sequence (Q9H832 whole entry): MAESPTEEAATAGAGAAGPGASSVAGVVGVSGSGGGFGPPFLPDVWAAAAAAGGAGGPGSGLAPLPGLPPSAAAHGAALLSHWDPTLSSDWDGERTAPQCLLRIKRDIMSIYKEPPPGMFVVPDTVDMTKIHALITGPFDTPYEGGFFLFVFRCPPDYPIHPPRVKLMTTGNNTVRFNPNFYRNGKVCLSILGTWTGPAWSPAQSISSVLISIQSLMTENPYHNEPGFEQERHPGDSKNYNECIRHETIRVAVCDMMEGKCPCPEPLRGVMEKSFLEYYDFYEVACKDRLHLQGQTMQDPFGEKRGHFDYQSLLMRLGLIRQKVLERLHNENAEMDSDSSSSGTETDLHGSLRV

B1: Aptamer 2 (ssDNA)
DNA: CACCTAATACGACTCACTATAGCGGACAGGGCTGGTGTGGCTGGCGTCCGGCTCGAACAAGGCTGGTGTGGCTGGCGTTCTGGCTCGAACAAGCTTGC
In the case of B1, in series [1], binding was put at a Kd of 32 ± 2.54 nM.

B2: Aptamer 1 (ssDNA)
DNA: CACCTAATACGACTCACTATAGCGGATCCGATGGGTGGGGGGGTGGGTAGGATCCGTTCGGGGTTTGGCATAGGGTCTGGCTCGAACAAGCTTGC
For B2, the Kd (as a rule, the equilibrium constant for the complex coming apart) in series [2] came to 7.2 ± 2.91 nM; in series [1] it was 10 ± 2.76 nM.

B3: Aptamer 1 fluorescence/quencher probe (mixed)
DNA 1: B2 DNA
DNA 2: GCAAGCTTGTTCGAGCCAG
DNA 3: CCCTATGCCAAAC
For the molecule B3, the binding result in series [3] is recorded as “binds”.

B4: Aptamer 1e (ssDNA)
DNA: CACCTAACACGATTCACTATAGCTCGGGGTTTGGCA
Consider B4, for which, in series [4], the binding result was “binds”.

B5: Aptamer 3 (ssDNA)
DNA: CACCTAATACGACTCACTATAGCGGATCCGACAGAATGCCATCACCATGTCTAGACCTATTGGCTTTGCGACTGGCTCGAACAAGCTTGC
Consider B5, for which the affinity in series [1], expressed as Kd, was 90 ± 2.42 nM.
